Data as given in the supplement of paper PMC6755084.

B1: minF1; a variant is named by its letters at N, in order (parent)
chain: GAGACCGCAACTGAAAAGTTGTTNNNNAANNNNNGGNTNAATTTCTGCACGTAGAAGCAAAAGGC

Variants of: B1
Assay: fraction ligated after 30 min (ligated reads / total reads); higher = more ligase activity
Conditions: with F1*subA RNA substrate (template-directed ligation), 42 °C
How it was run: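 Oligo-pool templates of minimized ligase ribozyme variants were PCR-amplified, T7-transcribed and gel-purified. Ligated and unligated RNAs were gel-separated, reverse transcribed with barcoded primers, and MiSeq-sequenced; core bases were filtered at quality ≥30. Fraction ligated per variant was ligated reads over total reads.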
For ATCGAGGATGT A40G, the fraction ligated was 0.0171.
Variant ATCAATGGTGT A40G has a fraction ligated of 0.00841.
Variant ATCGATGGAGT G35T T38G A40T A41G has a fraction ligated of 0.00105.
For ATAGATGGTGT A40G, the fraction ligated was 0.00815.
In the case of ATCAAGGTGTG A28G, the fraction ligated is reported as 0.00322.
With ATAGGGATGTG A29T the fraction ligated was 0.0314.
ATCAATGGAGT A28G G35T gave a fraction ligated of 0.0192.
Work on ATCATGGATTG A28G yielded a fraction ligated of 0.00743.
Work on ATCAAGGATGT A28G A40G yielded a fraction ligated of 0.0268.
In the case of ATCAATGATGT A40G, the fraction ligated is reported as 0.0188.
Work on ATCAATGATGT yielded a fraction ligated of 0.00391.
ATGATGGATGT gave a fraction ligated of 0.00269.
Work on ATCAAATGATG A28G yielded a fraction ligated of 0.00241.
In the case of ATCAAAGGAGT A28G, the fraction ligated is reported as 0.00277.
Variant ATCAATGGGTG has a fraction ligated of 0.0045.
With ATCAAATGTGT A28G A40G the fraction ligated was 0.00666.
In the case of ATCAGGATGTG A29T, the fraction ligated is reported as 0.0416.
ATCAAGGAGTG A28G was tested, and the fraction ligated was 0.00604.
ATCAAATGGGT A28G G35A A40G was tested, and the fraction ligated was 0.00585.
Variant ATCGATGATTG has a fraction ligated of 0.00246.
ATCAAGGATTG showed a fraction ligated of 0.00347.
Variant ATAGATGGAGT G35T A40G has a fraction ligated of 0.0113.
For ATCATGGATGT, the fraction ligated was 0.00625.
ATCGATGGAGT G35T A40G was tested, and the fraction ligated was 0.0726.
ATCAAATGGGT A28G showed a fraction ligated of 0.00311.
Variant ATCGAGGATGT has a fraction ligated of 0.004.
Work on ATCGATGATGT yielded a fraction ligated of 0.00439.
Variant ATAGTGGATGT has a fraction ligated of 0.0055.
ATCGTGATGTG gave a fraction ligated of 0.00711.
ATAGGGATGTG was tested, and the fraction ligated was 0.00301.
For ATCGAGATGTG, the fraction ligated was 0.00673.
ATCAAAGGTGT A28G A40G was tested, and the fraction ligated was 0.00781.
Variant ATCGTGGAGTG has a fraction ligated of 0.00282.
ATCAAGATGTG was tested, and the fraction ligated was 0.00503.
Work on ATAGTGGTGTG yielded a fraction ligated of 0.0019.
ATCATGGATGT A40G gave a fraction ligated of 0.0479.
ATCAAAGGGTG A28G showed a fraction ligated of 0.0042.
For ATCGTGGATGT A40G, the fraction ligated was 0.0919.
With ATCGGGATGTG A29T the fraction ligated was 0.045.
ATAGATGGTTG was tested, and the fraction ligated was 0.00545.
ATCAAGGATTG A28G was tested, and the fraction ligated was 0.00187.
Variant ATCAAAGATTG A28G has a fraction ligated of 0.00113.
ATGATGGATGT A40G showed a fraction ligated of 0.0235.
With ATCAAATGTGT A28G the fraction ligated was 0.00203.
Variant ATCGATGGAGT A40G has a fraction ligated of 0.00946.
For ATCAAATGAGT A28G, the fraction ligated was 0.00227.
ATCGATGGTGT A40G gave a fraction ligated of 0.0134.
ATCAAGGATGT was tested, and the fraction ligated was 0.00413.
With ATCAATGGAGT G35T A40G the fraction ligated was 0.0379.
ATCATGGATTG showed a fraction ligated of 0.00725.
Work on ATCATGGATGT A28G yielded a fraction ligated of 0.00453.
Work on ATAGATGGAGT G35T yielded a fraction ligated of 0.00557.
ATCAAATATGT A28G gave a fraction ligated of 0.00373.
For ATCAAAGGAGT A28G G35T T38G A40T, the fraction ligated was 0.00242.
ATAGATGGATG gave a fraction ligated of 0.00358.
With ATCAATGATGT A28G the fraction ligated was 0.00479.
Variant ATCAAATATGT A28G A40G has a fraction ligated of 0.00354.
For ATCGATGATGT A40G, the fraction ligated was 0.0304.
In the case of ATCAAATGAGT A28G G35T A40G, the fraction ligated is reported as 0.0046.
For ATCAATGGAGT A28G G35T A40G, the fraction ligated was 0.0474.
ATCAATATGTG showed a fraction ligated of 0.00461.
Variant ATCAAATGAGT A28G G35T T38G A40T has a fraction ligated of 0.00229.
In the case of ATCAAATGGGT A28G G35T, the fraction ligated is reported as 0.00148.
Work on ATCAAATGGGT A28G G35A yielded a fraction ligated of 0.00387.
Work on ATGATGGTGTG yielded a fraction ligated of 0.00304.
With ATCGATGGAGT G35T the fraction ligated was 0.0345.
With ATAGATGTGTG the fraction ligated was 0.00472.
ATCAAAGGAGT A28G G35T T38G A40T A41G showed a fraction ligated of 0.00104.
For ATCAATGGAGT A28G, the fraction ligated was 0.00328.
ATCAATGGATG was tested, and the fraction ligated was 0.00435.
ATCAAAGGTGT A28G showed a fraction ligated of 0.00198.
Work on ATCGTGGTGTG yielded a fraction ligated of 0.00665.
In the case of ATCGAGGATTG, the fraction ligated is reported as 0.00198.
In the case of ATAGATGGGTG, the fraction ligated is reported as 0.00409.
ATCAATGAGTG A28G was tested, and the fraction ligated was 0.00195.
ATGAGGATGTG was tested, and the fraction ligated was 0.00387.
ATCAATGGTGT gave a fraction ligated of 0.00377.
Work on ATCAAATGAGT A28G A40G yielded a fraction ligated of 0.00391.
ATCAATGGAGT A28G A40G gave a fraction ligated of 0.00701.
ATCATGATGTG A28G showed a fraction ligated of 0.00487.
For ATCGGGATGTG, the fraction ligated was 0.00497.
With ATCGATGGTTG the fraction ligated was 0.00328.
ATCAAAGGAGT A28G A40G showed a fraction ligated of 0.00414.
Variant ATCGTGGATGT has a fraction ligated of 0.00561.
Work on ATAGATGGAGT G35T T38G A40T A41G yielded a fraction ligated of 0.00159.
ATCAAAATGTG A28G showed a fraction ligated of 0.00354.
Work on ATGATGATGTG yielded a fraction ligated of 0.00356.
ATCAAATGGGT A28G G35T T38G A40T was tested, and the fraction ligated was 0.00125.
ATCAAAGGATG A28G was tested, and the fraction ligated was 0.0078.
With ATAGATGGAGT A40G the fraction ligated was 0.00598.
ATCAATGGAGT A28G G35T T38G A40T showed a fraction ligated of 0.00109.
With ATCAGGATGTG the fraction ligated was 0.00723.
With ATCAATGTGTG the fraction ligated was 0.0057.
ATCAATGTGTG A28G showed a fraction ligated of 0.00293.
With ATCGAGGAGTG the fraction ligated was 0.00378.
With ATCAAAGGAGT A28G G35T A40G the fraction ligated was 0.00529.
Work on ATCAAATAGTG A28G yielded a fraction ligated of 0.00491.
For ATGAGGATGTG A29T, the fraction ligated was 0.0247.
In the case of ATCAATGGAGT A40G, the fraction ligated is reported as 0.00544.
ATCGATGGATG gave a fraction ligated of 0.00346.
ATCAGGATGTG A28G showed a fraction ligated of 0.00911.
With ATCAATGGTTG the fraction ligated was 0.00416.
For ATCAATGGTTG A28G, the fraction ligated was 0.00263.
In the case of ATCAATGGAGT A28G G35T T38G A40T A41G, the fraction ligated is reported as 0.00208.
ATAGTGATGTG was tested, and the fraction ligated was 0.00472.
With ATCAATGAGTG the fraction ligated was 0.003.
In the case of ATCAATATGTG A28G, the fraction ligated is reported as 0.00244.
For ATCAAAGGTTG A28G, the fraction ligated was 0.0026.
Variant ATCAATGGAGT G35T has a fraction ligated of 0.0137.
Variant ATCAATGGGTG A28G has a fraction ligated of 0.00605.
Work on ATCAAAGAGTG A28G yielded a fraction ligated of 0.00276.
Variant ATCGATGTGTG has a fraction ligated of 0.00321.
Work on ATCAAGGATGT A40G yielded a fraction ligated of 0.0124.
Variant ATAGTGGATTG has a fraction ligated of 0.00612.
Variant ATCAAAGGAGT A28G G35T has a fraction ligated of 0.00323.
Variant ATCAAGATGTG A28G has a fraction ligated of 0.00558.
With ATCAATGATTG the fraction ligated was 0.00237.
In the case of ATCAATGGAGT G35T T38G A40T A41G, the fraction ligated is reported as 0.00079.
Work on ATCGATGGTGT yielded a fraction ligated of 0.00463.
In the case of ATGATGGAGTG, the fraction ligated is reported as 0.00146.
With ATCGATGGGTG the fraction ligated was 0.
Work on ATCATGGTGTG A28G yielded a fraction ligated of 0.00296.
With ATCAAATGGTG A28G the fraction ligated was 0.00482.
In the case of ATCAATGGAGT G35T T38G A40T, the fraction ligated is reported as 0.00324.
Variant ATCATGATGTG has a fraction ligated of 0.00541.
With ATCATGGTGTG the fraction ligated was 0.00812.
In the case of ATCAAATGAGT A28G G35T, the fraction ligated is reported as 0.00393.
ATCATGGAGTG was tested, and the fraction ligated was 0.00635.
ATCAAATGGGT A28G G35A T38G A40T was tested, and the fraction ligated was 0.000933.
With ATCAATGGAGT the fraction ligated was 0.00569.
For ATCAAGGAGTG, the fraction ligated was 0.00266.
Variant ATGATGGATTG has a fraction ligated of 0.0074.
ATCAATGGTGT A28G was tested, and the fraction ligated was 0.00146.
ATCATGGATGT A28G A40G showed a fraction ligated of 0.0551.
For ATCAAATGGGT A28G A40G, the fraction ligated was 0.00524.
ATCAATGATTG A28G gave a fraction ligated of 0.00338.
In the case of ATCATGGAGTG A28G, the fraction ligated is reported as 0.00478.
ATCAAAGTGTG A28G gave a fraction ligated of 0.00347.
ATCAGGATGTG A28G A29T gave a fraction ligated of 0.00511.
Work on ATCGATGGAGT yielded a fraction ligated of 0.00434.
For ATCAAATGGGT A28G G35T A40G, the fraction ligated was 0.00694.
Variant ATCGATGAGTG has a fraction ligated of 0.00373.
Variant ATCAAATATTG A28G has a fraction ligated of 0.00289.
For ATCGTGGATTG, the fraction ligated was 0.0062.
Variant ATCAAGGATGT A28G has a fraction ligated of 0.00393.
For ATCAAATTGTG A28G, the fraction ligated was 0.00273.
For ATAGATGGTGT, the fraction ligated was 0.00303.
In the case of ATCAATGGATG A28G, the fraction ligated is reported as 0.00279.
ATCAAAGATGT A28G A40G gave a fraction ligated of 0.0398.
Work on ATCGAGGTGTG yielded a fraction ligated of 0.00503.
For ATAGATGGAGT G35T T38G A40T, the fraction ligated was 0.000429.
In the case of ATCAAGGTGTG, the fraction ligated is reported as 0.00569.
In the case of ATCAAAGATGT A28G, the fraction ligated is reported as 0.00546.
ATCGATGGAGT G35T T38G A40T was tested, and the fraction ligated was 0.0031.
In the case of ATAGTGGATGT A40G, the fraction ligated is reported as 0.0158.
With ATCGATATGTG the fraction ligated was 0.00384.
For ATCAAATGTTG A28G, the fraction ligated was 0.00332.
Work on ATCAATGGTGT A28G A40G yielded a fraction ligated of 0.00763.
Work on ATAGTGGAGTG yielded a fraction ligated of 0.
ATCAATGATGT A28G A40G showed a fraction ligated of 0.0266.
